Each sequence was assayed on Escherichia coli TOP10 (assay: shrunken log2 fold change of peptide-encoding DNA abundance (4.5 h post-induction vs induction); higher = less antimicrobial activity (less host growth inhibition)). Settings: time post-induction: 4.5 h; library: site-saturation at positions 5, 18, 19, 20.
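Note: peptides expressed intracellularly from a pBAD plasmid library in pooled LB shake-flask culture, induced with 0.3% L-arabinose, DNA abundance read by NGS, three biological replicates, DESeq2 with apeglm shrinkage.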

Sequence | shrunken log2 fold change
RRIRERPPRLPRPRPRPQAPPRP | -0.0683
RRIRNRPPRLPRPRPRPDRDPRP | 0.0416
RRIRNRPPRLPRPRPRPDFYPRP | -0.24
RRIRHRPPRLPRPRPRPGSNPRP | 0.0117
RRIRSRPPRLPRPRPRPNSDPRP | -0.0183
RRIRHRPPRLPRPRPRPTCKPRP | -0.015
RRIRWRPPRLPRPRPRPHHPPRP | 0.0415
RRIRQRPPRLPRPRPRPNGFPRP | -0.258
RRIRIRPPRLPRPRPRPQAEPRP | 0.172
RRIRKRPPRLPRPRPRPHIYPRP | -0.175
RRIRNRPPRLPRPRPRPAMEPRP | 0.243
RRIRFRPPRLPRPRPRPYTMPRP | -1.06
RRIRLRPPRLPRPRPRPKVWPRP | 0.0698
RRIRLRPPRLPRPRPRPTWWPRP | 0.454
RRIRNRPPRLPRPRPRPVENPRP | -0.0754
RRIRARPPRLPRPRPRPFRNPRP | -0.575
RRIRVRPPRLPRPRPRPYRMPRP | -0.467
RRIRVRPPRLPRPRPRPCDVPRP | 0.0119
RRIRDRPPRLPRPRPRPHEPPRP | 0.211
RRIRYRPPRLPRPRPRPHKCPRP | -0.259
RRIRYRPPRLPRPRPRPQDMPRP | 0.000181
RRIRWRPPRLPRPRPRPCHYPRP | -0.0893
RRIRLRPPRLPRPRPRPGGAPRP | 0.384
RRIRGRPPRLPRPRPRPWWYPRP | -0.119
RRIRDRPPRLPRPRPRPRAHPRP | 0.38

Sequence | shrunken log2 fold change
RRIRIRPPRLPRPRPRPYEQPRP | -0.868
RRIRQRPPRLPRPRPRPYHQPRP | -0.631
RRIRQRPPRLPRPRPRPPYCPRP | 0.0161
RRIRWRPPRLPRPRPRPVYQPRP | -0.196
RRIRCRPPRLPRPRPRPMVGPRP | -0.00233
RRIRHRPPRLPRPRPRPRVKPRP | -0.00109
RRIRERPPRLPRPRPRPPCRPRP | -0.0117
RRIRERPPRLPRPRPRPPHVPRP | -0.362
RRIRIRPPRLPRPRPRPCDFPRP | -0.834
RRIRYRPPRLPRPRPRPRIEPRP | 0.0242
RRIRARPPRLPRPRPRPNCHPRP | -0.0678
RRIRRRPPRLPRPRPRPDVMPRP | 0.195
RRIRYRPPRLPRPRPRPAAVPRP | 0.0751
RRIRDRPPRLPRPRPRPIFAPRP | 0.142
RRIRGRPPRLPRPRPRPWHFPRP | -0.0456
RRIRERPPRLPRPRPRPQPYPRP | -0.43
RRIRNRPPRLPRPRPRPQGNPRP | -0.0905
RRIRQRPPRLPRPRPRPYASPRP | -0.00547
RRIRHRPPRLPRPRPRPDMDPRP | 0.0205
RRIRHRPPRLPRPRPRPEVWPRP | 0.714
RRIRDRPPRLPRPRPRPHHKPRP | -0.397
RRIRKRPPRLPRPRPRPRTKPRP | 1.08
RRIRTRPPRLPRPRPRPFGLPRP | 0.0236
RRIRGRPPRLPRPRPRPFVDPRP | 0.571
RRIRWRPPRLPRPRPRPKISPRP | 0.177

Sequence | shrunken log2 fold change
RRIRFRPPRLPRPRPRPASIPRP | -0.231
RRIRMRPPRLPRPRPRPTPAPRP | 2.13
RRIRRRPPRLPRPRPRPDYEPRP | -0.115
RRIRDRPPRLPRPRPRPPHSPRP | 0.279
RRIRCRPPRLPRPRPRPAPLPRP | 0.645
RRIRVRPPRLPRPRPRPTDSPRP | -0.115
RRIRFRPPRLPRPRPRPMTSPRP | -0.552
RRIRGRPPRLPRPRPRPKHQPRP | 0.441
RRIRVRPPRLPRPRPRPYEYPRP | -0.137
RRIRWRPPRLPRPRPRPVWAPRP | 0.263
RRIRHRPPRLPRPRPRPVHNPRP | 0.154
RRIRIRPPRLPRPRPRPTFAPRP | -0.176
RRIRNRPPRLPRPRPRPHWIPRP | -0.322
RRIRNRPPRLPRPRPRPTYYPRP | -0.325
RRIRYRPPRLPRPRPRPWKAPRP | -0.0135
RRIRMRPPRLPRPRPRPVNTPRP | 0.0779
RRIRARPPRLPRPRPRPIPPPRP | 0.217
RRIRERPPRLPRPRPRPRGIPRP | -0.102
RRIRYRPPRLPRPRPRPCRAPRP | -0.459
RRIRWRPPRLPRPRPRPGRWPRP | 0.742
RRIRMRPPRLPRPRPRPDYKPRP | 0.248
RRIRWRPPRLPRPRPRPSGTPRP | 0.0142
RRIRTRPPRLPRPRPRPWDAPRP | 0.125
RRIRCRPPRLPRPRPRPCFHPRP | -0.597
RRIRERPPRLPRPRPRPRCNPRP | -0.122

Sequence | shrunken log2 fold change
RRIRVRPPRLPRPRPRPVWEPRP | 0.0761
RRIRMRPPRLPRPRPRPGWHPRP | 0.41
RRIRERPPRLPRPRPRPHSYPRP | -0.0459
RRIRSRPPRLPRPRPRPKCPPRP | -0.118
RRIRYRPPRLPRPRPRPIIFPRP | 0.0131
RRIRDRPPRLPRPRPRPNQDPRP | 0.000998
RRIRIRPPRLPRPRPRPSAEPRP | -0.0944
RRIRCRPPRLPRPRPRPNTPPRP | -0.345
RRIRLRPPRLPRPRPRPYIIPRP | -0.217
RRIRERPPRLPRPRPRPPDFPRP | 0.00276
RRIRPRPPRLPRPRPRPQTCPRP | 0.111
RRIRGRPPRLPRPRPRPMFHPRP | 0.074
RRIRLRPPRLPRPRPRPVWKPRP | -0.0133
RRIRIRPPRLPRPRPRPVLQPRP | 0.103
RRIRFRPPRLPRPRPRPKCEPRP | 0.051
RRIRVRPPRLPRPRPRPLHYPRP | -0.088
RRIRHRPPRLPRPRPRPMYWPRP | -0.222
RRIRSRPPRLPRPRPRPKHQPRP | 0.155
RRIRYRPPRLPRPRPRPGNDPRP | -0.356
RRIRLRPPRLPRPRPRPLNWPRP | -0.0552
RRIRQRPPRLPRPRPRPHNNPRP | -0.748
RRIRLRPPRLPRPRPRPHLPPRP | -0.353
RRIRERPPRLPRPRPRPMHGPRP | -0.00992
RRIRERPPRLPRPRPRPVRLPRP | 0.0832
RRIRDRPPRLPRPRPRPIQCPRP | 0.0299

Sequence | shrunken log2 fold change
RRIRVRPPRLPRPRPRPQDTPRP | -0.64
RRIRVRPPRLPRPRPRPVTNPRP | -0.68
RRIRARPPRLPRPRPRPFTDPRP | 0.128
RRIRNRPPRLPRPRPRPPVTPRP | 0.228
RRIRRRPPRLPRPRPRPNQSPRP | -0.13
RRIRGRPPRLPRPRPRPHLQPRP | 0.479
RRIRIRPPRLPRPRPRPDTFPRP | -0.364
RRIRNRPPRLPRPRPRPFHFPRP | -0.359
RRIRKRPPRLPRPRPRPFLTPRP | -0.206
RRIRKRPPRLPRPRPRPQTGPRP | 0.0141
RRIRWRPPRLPRPRPRPYKLPRP | -0.327
RRIRERPPRLPRPRPRPGYTPRP | 0.0628
RRIRVRPPRLPRPRPRPHICPRP | -0.18
RRIRARPPRLPRPRPRPFYPPRP | -0.104
RRIRNRPPRLPRPRPRPRAHPRP | -0.0951
RRIRPRPPRLPRPRPRPHPHPRP | 0.0281
RRIRVRPPRLPRPRPRPGCSPRP | 0.186
RRIRFRPPRLPRPRPRPLCYPRP | -0.557
RRIRARPPRLPRPRPRPAGEPRP | 0.921
RRIRDRPPRLPRPRPRPMIVPRP | 0.00989
RRIRCRPPRLPRPRPRPMCKPRP | -0.109
RRIRNRPPRLPRPRPRPSRKPRP | -0.21
RRIRDRPPRLPRPRPRPLMDPRP | 0.172
RRIRVRPPRLPRPRPRPMDIPRP | -0.308
RRIRHRPPRLPRPRPRPMYRPRP | -0.0948

Sequence | shrunken log2 fold change
RRIRERPPRLPRPRPRPAFMPRP | -0.154
RRIRTRPPRLPRPRPRPKDLPRP | 0.0246
RRIRPRPPRLPRPRPRPYMTPRP | -0.227
RRIRNRPPRLPRPRPRPLDLPRP | 0.00897
RRIRKRPPRLPRPRPRPEVEPRP | 2.8
RRIRIRPPRLPRPRPRPTRTPRP | 0.22
RRIRERPPRLPRPRPRPREDPRP | -0.0632
RRIRPRPPRLPRPRPRPGLPPRP | 0.0398
RRIRMRPPRLPRPRPRPKYCPRP | 0.0472
RRIRQRPPRLPRPRPRPMSVPRP | 0.0173
RRIRTRPPRLPRPRPRPVWFPRP | 0.0412
RRIRHRPPRLPRPRPRPPWWPRP | 0.18
RRIRPRPPRLPRPRPRPYYHPRP | -0.794
RRIRKRPPRLPRPRPRPDLSPRP | -0.0341
RRIRSRPPRLPRPRPRPWHFPRP | -0.0226
RRIRERPPRLPRPRPRPHIPPRP | -0.682
RRIRWRPPRLPRPRPRPLPIPRP | -0.0952
RRIRQRPPRLPRPRPRPTQIPRP | 0.223
RRIRIRPPRLPRPRPRPMLHPRP | -0.749
RRIRTRPPRLPRPRPRPFTTPRP | -0.0286
RRIRDRPPRLPRPRPRPFNSPRP | -0.0203
RRIRKRPPRLPRPRPRPKAGPRP | 0.504
RRIRGRPPRLPRPRPRPMYDPRP | 0.233
RRIRWRPPRLPRPRPRPRHFPRP | 0.223
RRIRIRPPRLPRPRPRPYHVPRP | -0.186
